Measured values as given in paper PMC5951847, “Substrate sequence selectivity of APOBEC3A implicates intra-DNA interactions”.

Molecular target: A3A(E72A) (Homo sapiens, UniProt P31941 1-199, E72A)
Test: fluorescence anisotropy; pH 6.0; 50 mM MES pH 6.0, 100 mM NaCl, 0.5 mM TCEP, room temperature overnight, 10 nM TAMRA-oligo; competition with 300 nM A3A(E72A); pH series: acetate 4.0-5.0, MES 5.5-6.5, HEPES 7.0-8.0, Tris 8.5-9.0
Conditions: protein: recombinant; tags: His6-SUMO removed by Ulp1 (untagged); label: 5' TAMRA; hairpin

Sequence of A3A(E72A) (P31941 whole entry E72A): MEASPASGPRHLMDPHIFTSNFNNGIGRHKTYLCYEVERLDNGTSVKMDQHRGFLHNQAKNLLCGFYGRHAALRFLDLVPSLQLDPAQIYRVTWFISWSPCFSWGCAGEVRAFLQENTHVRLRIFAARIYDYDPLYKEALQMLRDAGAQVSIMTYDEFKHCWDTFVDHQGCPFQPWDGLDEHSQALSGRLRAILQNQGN

GCCATCATTCGATGGG (structured_DNA) [Hairpin-TTC]
Kd: 26 ± 2 nM
